# US12679878B2, “CRF2 receptor agonists and their use in therapy” (SANOFI, priority 2020, dated 2026)
# Starred links: 1 amine or outer side, 2 acyl side, 3 side chain; linkers in the order of their positions; H or OH if unused. Non-standard residues stand in square brackets, D forms with d. Groups on a side chain read outwards from the residue. No end group written: not given here. *: point of attachment. C18 diacid = O=C(O)CCCCCCCCCCCCCCCCC(=O)*; γGlu = O=C(O)[C@H](CCC(=O)[*:2])N[*:1]; AEEA = NCCOCCOCC(=O)O; Aib = CC(C)(N)C(=O)O
# B1: SEQ ID NO: 51 (peptide)
# peptide: FTLSLDVPTKIK([AEEA-AEEA-γGlu-C18 diacid])QILLKQQKQKKERQQAEKNKQLLEQI-NH2
# modifications: N-terminus assumed
# SMILES: CC[C@H](C)[C@H](NC(=O)[C@H](CCC(N)=O)NC(=O)[C@H](CCC(=O)O)NC(=O)[C@H](CC(C)C)NC(=O)[C@H](CC(C)C)NC(=O)[C@H](CCC(N)=O)NC(=O)[C@H](CCCCN)NC(=O)[C@H](CC(N)=O)NC(=O)[C@H](CCCCN)NC(=O)[C@H](CCC(=O)O)NC(=O)[C@H](C)NC(=O)[C@H](CCC(N)=O)NC(=O)[C@H](CCC(N)=O)NC(=O)[C@H](CCCNC(=N)N)NC(=O)[C@H](CCC(=O)O)NC(=O)[C@H](CCCCN)NC(=O)[C@H](CCCCN)NC(=O)[C@H](CCC(N)=O)NC(=O)[C@H](CCCCN)NC(=O)[C@H](CCC(N)=O)NC(=O)[C@H](CCC(N)=O)NC(=O)[C@H](CCCCN)NC(=O)[C@H](CC(C)C)NC(=O)[C@H](CC(C)C)NC(=O)[C@@H](NC(=O)[C@H](CCC(N)=O)NC(=O)[C@H](CCCCNC(=O)COCCOCCNC(=O)COCCOCCNC(=O)CC[C@H](NC(=O)CCCCCCCCCCCCCCCCC(=O)O)C(=O)O)NC(=O)[C@@H](NC(=O)[C@H](CCCCN)NC(=O)[C@@H](NC(=O)[C@@H]1CCCN1C(=O)[C@@H](NC(=O)[C@H](CC(=O)O)NC(=O)[C@H](CC(C)C)NC(=O)[C@H](CO)NC(=O)[C@H](CC(C)C)NC(=O)[C@@H](NC(=O)[C@@H](N)Cc1ccccc1)[C@@H](C)O)C(C)C)[C@@H](C)O)[C@@H](C)CC)[C@@H](C)CC)C(N)=O
# B2: SEQ ID NO: 45 (peptide)
# peptide: IVLSLDVPIKLK([AEEA-AEEA-γGlu-C18 diacid])QILLEQAKQK[Aib]LKAQAETNVRILERV-NH2
# modifications: N-terminus assumed
# SMILES: CC[C@H](C)[C@H](N)C(=O)N[C@H](C(=O)N[C@@H](CC(C)C)C(=O)N[C@@H](CO)C(=O)N[C@@H](CC(C)C)C(=O)N[C@@H](CC(=O)O)C(=O)N[C@H](C(=O)N1CCC[C@H]1C(=O)N[C@H](C(=O)N[C@@H](CCCCN)C(=O)N[C@@H](CC(C)C)C(=O)N[C@@H](CCCCNC(=O)COCCOCCNC(=O)COCCOCCNC(=O)CC[C@H](NC(=O)CCCCCCCCCCCCCCCCC(=O)O)C(=O)O)C(=O)N[C@@H](CCC(N)=O)C(=O)N[C@H](C(=O)N[C@@H](CC(C)C)C(=O)N[C@@H](CC(C)C)C(=O)N[C@@H](CCC(=O)O)C(=O)N[C@@H](CCC(N)=O)C(=O)N[C@@H](C)C(=O)N[C@@H](CCCCN)C(=O)N[C@@H](CCC(N)=O)C(=O)N[C@@H](CCCCN)C(=O)NC(C)(C)C(=O)N[C@@H](CC(C)C)C(=O)N[C@@H](CCCCN)C(=O)N[C@@H](C)C(=O)N[C@@H](CCC(N)=O)C(=O)N[C@@H](C)C(=O)N[C@@H](CCC(=O)O)C(=O)N[C@H](C(=O)N[C@@H](CC(N)=O)C(=O)N[C@H](C(=O)N[C@@H](CCCNC(=N)N)C(=O)N[C@H](C(=O)N[C@@H](CC(C)C)C(=O)N[C@@H](CCC(=O)O)C(=O)N[C@@H](CCCNC(=N)N)C(=O)N[C@H](C(N)=O)C(C)C)[C@@H](C)CC)C(C)C)[C@@H](C)O)[C@@H](C)CC)[C@@H](C)CC)C(C)C)C(C)C
# B3: SEQ ID NO: 48 (peptide)
# peptide: IVLSLDVPIKLK([AEEA-AEEA-γGlu-C18 diacid])QILLEQERQR[Aib]ERQQAETNVQILAQV-NH2
# modifications: N-terminus assumed
# SMILES: CC[C@H](C)[C@H](N)C(=O)N[C@H](C(=O)N[C@@H](CC(C)C)C(=O)N[C@@H](CO)C(=O)N[C@@H](CC(C)C)C(=O)N[C@@H](CC(=O)O)C(=O)N[C@H](C(=O)N1CCC[C@H]1C(=O)N[C@H](C(=O)N[C@@H](CCCCN)C(=O)N[C@@H](CC(C)C)C(=O)N[C@@H](CCCCNC(=O)COCCOCCNC(=O)COCCOCCNC(=O)CC[C@H](NC(=O)CCCCCCCCCCCCCCCCC(=O)O)C(=O)O)C(=O)N[C@@H](CCC(N)=O)C(=O)N[C@H](C(=O)N[C@@H](CC(C)C)C(=O)N[C@@H](CC(C)C)C(=O)N[C@@H](CCC(=O)O)C(=O)N[C@@H](CCC(N)=O)C(=O)N[C@@H](CCC(=O)O)C(=O)N[C@@H](CCCNC(=N)N)C(=O)N[C@@H](CCC(N)=O)C(=O)N[C@@H](CCCNC(=N)N)C(=O)NC(C)(C)C(=O)N[C@@H](CCC(=O)O)C(=O)N[C@@H](CCCNC(=N)N)C(=O)N[C@@H](CCC(N)=O)C(=O)N[C@@H](CCC(N)=O)C(=O)N[C@@H](C)C(=O)N[C@@H](CCC(=O)O)C(=O)N[C@H](C(=O)N[C@@H](CC(N)=O)C(=O)N[C@H](C(=O)N[C@@H](CCC(N)=O)C(=O)N[C@H](C(=O)N[C@@H](CC(C)C)C(=O)N[C@@H](C)C(=O)N[C@@H](CCC(N)=O)C(=O)N[C@H](C(N)=O)C(C)C)[C@@H](C)CC)C(C)C)[C@@H](C)O)[C@@H](C)CC)[C@@H](C)CC)C(C)C)C(C)C
# B4: SEQ ID NO: 49 (peptide)
# peptide: IVLSLDVPIKLK([AEEA-AEEA-γGlu-C18 diacid])QILLEQERQR[Aib]ERQQAETNVRILERV-NH2
# modifications: N-terminus assumed
# SMILES: CC[C@H](C)[C@H](N)C(=O)N[C@H](C(=O)N[C@@H](CC(C)C)C(=O)N[C@@H](CO)C(=O)N[C@@H](CC(C)C)C(=O)N[C@@H](CC(=O)O)C(=O)N[C@H](C(=O)N1CCC[C@H]1C(=O)N[C@H](C(=O)N[C@@H](CCCCN)C(=O)N[C@@H](CC(C)C)C(=O)N[C@@H](CCCCNC(=O)COCCOCCNC(=O)COCCOCCNC(=O)CC[C@H](NC(=O)CCCCCCCCCCCCCCCCC(=O)O)C(=O)O)C(=O)N[C@@H](CCC(N)=O)C(=O)N[C@H](C(=O)N[C@@H](CC(C)C)C(=O)N[C@@H](CC(C)C)C(=O)N[C@@H](CCC(=O)O)C(=O)N[C@@H](CCC(N)=O)C(=O)N[C@@H](CCC(=O)O)C(=O)N[C@@H](CCCNC(=N)N)C(=O)N[C@@H](CCC(N)=O)C(=O)N[C@@H](CCCNC(=N)N)C(=O)NC(C)(C)C(=O)N[C@@H](CCC(=O)O)C(=O)N[C@@H](CCCNC(=N)N)C(=O)N[C@@H](CCC(N)=O)C(=O)N[C@@H](CCC(N)=O)C(=O)N[C@@H](C)C(=O)N[C@@H](CCC(=O)O)C(=O)N[C@H](C(=O)N[C@@H](CC(N)=O)C(=O)N[C@H](C(=O)N[C@@H](CCCNC(=N)N)C(=O)N[C@H](C(=O)N[C@@H](CC(C)C)C(=O)N[C@@H](CCC(=O)O)C(=O)N[C@@H](CCCNC(=N)N)C(=O)N[C@H](C(N)=O)C(C)C)[C@@H](C)CC)C(C)C)[C@@H](C)O)[C@@H](C)CC)[C@@H](C)CC)C(C)C)C(C)C
# B5: SEQ ID NO: 46 (peptide)
# peptide: IVLSLDVPIKLK([AEEA-AEEA-γGlu-C18 diacid])QILLEQAKQK[Aib]LRAQAETNVRILERV-NH2
# modifications: N-terminus assumed
# SMILES: CC[C@H](C)[C@H](N)C(=O)N[C@H](C(=O)N[C@@H](CC(C)C)C(=O)N[C@@H](CO)C(=O)N[C@@H](CC(C)C)C(=O)N[C@@H](CC(=O)O)C(=O)N[C@H](C(=O)N1CCC[C@H]1C(=O)N[C@H](C(=O)N[C@@H](CCCCN)C(=O)N[C@@H](CC(C)C)C(=O)N[C@@H](CCCCNC(=O)COCCOCCNC(=O)COCCOCCNC(=O)CC[C@H](NC(=O)CCCCCCCCCCCCCCCCC(=O)O)C(=O)O)C(=O)N[C@@H](CCC(N)=O)C(=O)N[C@H](C(=O)N[C@@H](CC(C)C)C(=O)N[C@@H](CC(C)C)C(=O)N[C@@H](CCC(=O)O)C(=O)N[C@@H](CCC(N)=O)C(=O)N[C@@H](C)C(=O)N[C@@H](CCCCN)C(=O)N[C@@H](CCC(N)=O)C(=O)N[C@@H](CCCCN)C(=O)NC(C)(C)C(=O)N[C@@H](CC(C)C)C(=O)N[C@@H](CCCNC(=N)N)C(=O)N[C@@H](C)C(=O)N[C@@H](CCC(N)=O)C(=O)N[C@@H](C)C(=O)N[C@@H](CCC(=O)O)C(=O)N[C@H](C(=O)N[C@@H](CC(N)=O)C(=O)N[C@H](C(=O)N[C@@H](CCCNC(=N)N)C(=O)N[C@H](C(=O)N[C@@H](CC(C)C)C(=O)N[C@@H](CCC(=O)O)C(=O)N[C@@H](CCCNC(=N)N)C(=O)N[C@H](C(N)=O)C(C)C)[C@@H](C)CC)C(C)C)[C@@H](C)O)[C@@H](C)CC)[C@@H](C)CC)C(C)C)C(C)C
# B6: SEQ ID NO: 50 (peptide)
# peptide: IVLSLDVPTKLK([AEEA-AEEA-γGlu-C18 diacid])QILLKQERQR[Aib]ERQQAETNVRILERV-NH2
# modifications: N-terminus assumed
# SMILES: CC[C@H](C)[C@H](N)C(=O)N[C@H](C(=O)N[C@@H](CC(C)C)C(=O)N[C@@H](CO)C(=O)N[C@@H](CC(C)C)C(=O)N[C@@H](CC(=O)O)C(=O)N[C@H](C(=O)N1CCC[C@H]1C(=O)N[C@H](C(=O)N[C@@H](CCCCN)C(=O)N[C@@H](CC(C)C)C(=O)N[C@@H](CCCCNC(=O)COCCOCCNC(=O)COCCOCCNC(=O)CC[C@H](NC(=O)CCCCCCCCCCCCCCCCC(=O)O)C(=O)O)C(=O)N[C@@H](CCC(N)=O)C(=O)N[C@H](C(=O)N[C@@H](CC(C)C)C(=O)N[C@@H](CC(C)C)C(=O)N[C@@H](CCCCN)C(=O)N[C@@H](CCC(N)=O)C(=O)N[C@@H](CCC(=O)O)C(=O)N[C@@H](CCCNC(=N)N)C(=O)N[C@@H](CCC(N)=O)C(=O)N[C@@H](CCCNC(=N)N)C(=O)NC(C)(C)C(=O)N[C@@H](CCC(=O)O)C(=O)N[C@@H](CCCNC(=N)N)C(=O)N[C@@H](CCC(N)=O)C(=O)N[C@@H](CCC(N)=O)C(=O)N[C@@H](C)C(=O)N[C@@H](CCC(=O)O)C(=O)N[C@H](C(=O)N[C@@H](CC(N)=O)C(=O)N[C@H](C(=O)N[C@@H](CCCNC(=N)N)C(=O)N[C@H](C(=O)N[C@@H](CC(C)C)C(=O)N[C@@H](CCC(=O)O)C(=O)N[C@@H](CCCNC(=N)N)C(=O)N[C@H](C(N)=O)C(C)C)[C@@H](C)CC)C(C)C)[C@@H](C)O)[C@@H](C)CC)[C@@H](C)O)C(C)C)C(C)C
# Molecular target: human corticotropin-releasing factor 2α (CRF2 α receptor) (human), Q13324
# Sequence (Q13324 20-411): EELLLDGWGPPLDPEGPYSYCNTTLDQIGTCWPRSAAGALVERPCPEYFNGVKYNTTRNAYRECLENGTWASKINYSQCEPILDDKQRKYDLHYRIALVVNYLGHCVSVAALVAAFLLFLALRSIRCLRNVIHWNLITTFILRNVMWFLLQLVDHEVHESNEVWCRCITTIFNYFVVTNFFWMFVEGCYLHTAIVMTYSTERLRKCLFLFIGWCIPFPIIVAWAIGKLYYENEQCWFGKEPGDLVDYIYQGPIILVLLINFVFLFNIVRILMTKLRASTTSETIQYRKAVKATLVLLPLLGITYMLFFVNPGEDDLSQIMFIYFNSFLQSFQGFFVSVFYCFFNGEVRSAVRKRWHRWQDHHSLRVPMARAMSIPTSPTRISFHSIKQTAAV
# Experiment: cell-based or functional assay
Binder,"EC50 [nM], 0% HSA","EC50 [nM], 0.1% HSA"
B1,0.32 nM,21.4 nM
B2,3.77 nM,–
B3,2.2 nM,–
B4,12.7 nM,–
IVLSLD[dV]PTKLK([AEEA-AEEA-γGlu-C18 diacid])KKLLKQERKR[Aib]EREKAEKAARILERV-NH2 [SEQ ID NO: 47],6.85 nM,–
B5,0.52 nM,–
B6,17.2 nM,–
